# B1: Receptor-type tyrosine-protein phosphatase T (Homo sapiens), O14522-1 (parent)
# chain: MASLAALALSLLLRLQLPPLPGARAQSAAGGCSFDEHYSNCGYSVALGTNGFTWEQINTWEKPMLDQAVPTGSFMMVNSSGRASGQKAHLLLPTLKENDTHCIDFHYYFSSRDRSSPGALNVYVKVNGGPQGNPVWNVSGVVTEGWVKAELAISTFWPHFYQVIFESVSLKGHPGYIAVDEVRVLAHPCRKAPHFLRLQNVEVNVGQNATFQCIAGGKWSQHDKLWLQQWNGRDTALMVTRVVNHRRFSATVSVADTAQRSVSKYRCVIRSDGGSGVSNYAELIVKEPPTPIAPPELLAVGATYLWIKPNANSIIGDGPIILKEVEYRTTTGTWAETHIVDSPNYKLWHLDPDVEYEIRVLLTRPGEGGTGPPGPPLTTRTKCADPVHGPQNVEIVDIRARQLTLQWEPFGYAVTRCHSYNLTVQYQYVFNQQQYEAEEVIQTSSHYTLRGLRPFMTIRLRLLLSNPEGRMESEELVVQTEEDVPGAVPLESIQGGPFEEKIYIQWKPPNETNGVITLYEINYKAVGSLDPSADLSSQRGKVFKLRNETHHLFVGLYPGTTYSFTIKASTAKGFGPPVTTRIATKISAPSMPEYDTDTPLNETDTTITVMLKPAQSRGAPVSVYQLVVKEERLQKSRRAADIIECFSVPVSYRNASSLDSLHYFAAELKPANLPVTQPFTVGDNKTYNGYWNPPLSPLKSYSIYFQALSKANGETKINCVRLATKAPMGSAQVTPGTPLCLLTTGASTQNSNTVEPEKQVDNTVKMAGVIAGLLMFIIILLGVMLTIKRRRNAYSYSYYLSQRKLAKKQKETQSGAQREMGPVASADKPTTKLSASRNDEGFSSSSQDVNGFTDGSRGELSQPTLTIQTHPYRTCDPVEMSYPRDQFQPAIRVADLLQHITQMKRGQGYGFKEEYEALPEGQTASWDTAKEDENRNKNRYGNIISYDHSRVRLLVLDGDPHSDYINANYIDGYHRPRHYIATQGPMQETVKDFWRMIWQENSASIVMVTNLVEVGRVKCVRYWPDDTEVYGDIKVTLIETEPLAEYVIRTFTVQKKGYHEIRELRLFHFTSWPDHGVPCYATGLLGFVRQVKFLNPPEAGPIVVHCSAGAGRTGCFIAIDTMLDMAENEGVVDIFNCVRELRAQRVNLVQTEEQYVFVHDAILEACLCGNTAIPVCEFRSLYYNISRLDPQTNSSQIKDEFQTLNIVTPRVRPEDCSIGLLPRNHDKNRSMDVLPLDRCLPFLISVDGESSNYINAALMDSHKQPAAFVVTQHPLPNTVADFWRLVFDYNCSSVVMLNEMDTAQFCMQYWPEKTSGCYGPIQVEFVSADIDEDIIHRIFRICNMARPQDGYRIVQHLQYIGWPAYRDTPPSKRSLLKVVRRLEKWQEQYDGREGRTVVHCLNGGGRSGTFCAICSVCEMIQQQNIIDVFHIVKTLRNNKSNMVETLEQYKFVYEVALEYLSSF
# Variants of: B1
# Settings: with stat3_human STAT3, P40763
# Sequence of stat3_human STAT3, P40763 (P40763 whole entry): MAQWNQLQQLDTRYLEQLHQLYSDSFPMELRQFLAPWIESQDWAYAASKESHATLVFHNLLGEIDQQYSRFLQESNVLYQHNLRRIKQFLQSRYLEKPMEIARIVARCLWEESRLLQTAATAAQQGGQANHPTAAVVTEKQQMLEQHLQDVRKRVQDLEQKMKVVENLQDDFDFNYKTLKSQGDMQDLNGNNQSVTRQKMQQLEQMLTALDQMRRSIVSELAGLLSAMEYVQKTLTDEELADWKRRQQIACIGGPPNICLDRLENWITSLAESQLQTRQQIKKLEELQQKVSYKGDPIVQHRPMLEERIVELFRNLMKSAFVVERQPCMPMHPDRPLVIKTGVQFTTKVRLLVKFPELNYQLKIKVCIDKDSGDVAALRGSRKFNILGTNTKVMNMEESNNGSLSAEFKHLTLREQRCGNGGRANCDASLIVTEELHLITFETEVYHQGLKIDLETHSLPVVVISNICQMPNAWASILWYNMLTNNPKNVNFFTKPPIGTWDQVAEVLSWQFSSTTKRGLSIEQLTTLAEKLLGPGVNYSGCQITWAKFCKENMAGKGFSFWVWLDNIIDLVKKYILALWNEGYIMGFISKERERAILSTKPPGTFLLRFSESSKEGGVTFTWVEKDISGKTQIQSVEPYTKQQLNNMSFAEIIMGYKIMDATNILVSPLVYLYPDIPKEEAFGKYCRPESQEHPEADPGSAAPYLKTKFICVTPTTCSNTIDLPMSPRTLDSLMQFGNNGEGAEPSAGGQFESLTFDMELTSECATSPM
row,Variant,effect of a mutation on the interaction
1,D1074A,increasing interaction strength
2,D1074A;C1106S,increasing interaction strength
